The source of these data is patent publication US20220289795, “EFFICIENT METHOD FOR PREPARING PPR PROTEIN AND USE OF THE SAME” (EditForce, Inc., published 2022).

Common to all, as to experiment: ELONA; RPB-ELISA
In one data set the target is T1, v3.1_PPR15 (Artificial Sequence).
T1 chain: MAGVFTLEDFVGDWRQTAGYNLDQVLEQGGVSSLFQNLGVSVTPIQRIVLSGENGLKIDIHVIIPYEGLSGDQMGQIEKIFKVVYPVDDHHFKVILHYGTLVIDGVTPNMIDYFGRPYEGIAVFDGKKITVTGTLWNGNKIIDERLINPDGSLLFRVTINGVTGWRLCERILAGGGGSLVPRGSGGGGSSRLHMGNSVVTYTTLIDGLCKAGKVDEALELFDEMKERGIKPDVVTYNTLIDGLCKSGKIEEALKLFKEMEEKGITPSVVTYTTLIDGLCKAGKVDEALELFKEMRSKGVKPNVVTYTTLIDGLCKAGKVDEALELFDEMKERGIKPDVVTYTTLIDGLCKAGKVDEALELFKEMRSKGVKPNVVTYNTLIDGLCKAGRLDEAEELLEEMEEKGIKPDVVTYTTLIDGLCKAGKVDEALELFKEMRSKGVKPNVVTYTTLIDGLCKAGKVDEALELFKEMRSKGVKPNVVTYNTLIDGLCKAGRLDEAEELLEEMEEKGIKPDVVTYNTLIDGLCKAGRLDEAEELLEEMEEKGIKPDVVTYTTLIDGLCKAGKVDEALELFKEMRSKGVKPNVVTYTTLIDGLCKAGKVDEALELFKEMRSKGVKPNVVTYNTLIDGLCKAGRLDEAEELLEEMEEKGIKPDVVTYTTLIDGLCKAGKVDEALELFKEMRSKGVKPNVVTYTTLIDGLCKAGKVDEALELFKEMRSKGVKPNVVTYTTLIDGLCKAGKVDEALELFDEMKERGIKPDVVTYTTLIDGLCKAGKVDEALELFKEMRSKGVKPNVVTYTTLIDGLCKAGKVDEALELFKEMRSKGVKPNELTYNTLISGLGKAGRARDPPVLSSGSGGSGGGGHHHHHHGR
As to conditions: tags: luciferase fusion; label: 5'-biotin.

The target of the next data set is T2, NL_v2_PPR15 (Artificial Sequence).
T2 chain: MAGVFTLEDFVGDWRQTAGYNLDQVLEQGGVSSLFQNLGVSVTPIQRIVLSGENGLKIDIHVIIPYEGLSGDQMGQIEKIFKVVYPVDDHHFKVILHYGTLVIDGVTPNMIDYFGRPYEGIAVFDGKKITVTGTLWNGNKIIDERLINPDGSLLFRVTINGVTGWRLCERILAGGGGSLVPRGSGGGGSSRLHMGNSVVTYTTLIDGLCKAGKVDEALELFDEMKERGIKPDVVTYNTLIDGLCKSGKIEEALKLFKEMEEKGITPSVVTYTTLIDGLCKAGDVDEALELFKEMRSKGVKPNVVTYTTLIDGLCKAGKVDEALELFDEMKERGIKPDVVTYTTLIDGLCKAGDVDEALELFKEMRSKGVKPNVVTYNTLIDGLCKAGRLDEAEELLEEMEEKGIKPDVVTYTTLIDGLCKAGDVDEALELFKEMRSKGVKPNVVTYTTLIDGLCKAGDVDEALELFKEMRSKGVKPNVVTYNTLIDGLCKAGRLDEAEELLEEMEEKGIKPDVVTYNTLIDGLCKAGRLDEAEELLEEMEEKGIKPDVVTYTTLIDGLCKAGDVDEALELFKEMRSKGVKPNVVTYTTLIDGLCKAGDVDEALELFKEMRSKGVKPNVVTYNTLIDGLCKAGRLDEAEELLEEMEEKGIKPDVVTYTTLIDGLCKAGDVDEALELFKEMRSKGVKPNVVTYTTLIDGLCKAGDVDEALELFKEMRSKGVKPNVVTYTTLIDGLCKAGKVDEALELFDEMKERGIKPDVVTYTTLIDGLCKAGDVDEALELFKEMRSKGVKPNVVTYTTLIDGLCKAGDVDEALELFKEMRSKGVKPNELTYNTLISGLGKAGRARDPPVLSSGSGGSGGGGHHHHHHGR
As to conditions: tags: N-term luciferase, C-term 6xHis; label: 5'-biotin.

The next data set deals with T3, v3.1_PPR16 (Artificial Sequence).
T3 chain: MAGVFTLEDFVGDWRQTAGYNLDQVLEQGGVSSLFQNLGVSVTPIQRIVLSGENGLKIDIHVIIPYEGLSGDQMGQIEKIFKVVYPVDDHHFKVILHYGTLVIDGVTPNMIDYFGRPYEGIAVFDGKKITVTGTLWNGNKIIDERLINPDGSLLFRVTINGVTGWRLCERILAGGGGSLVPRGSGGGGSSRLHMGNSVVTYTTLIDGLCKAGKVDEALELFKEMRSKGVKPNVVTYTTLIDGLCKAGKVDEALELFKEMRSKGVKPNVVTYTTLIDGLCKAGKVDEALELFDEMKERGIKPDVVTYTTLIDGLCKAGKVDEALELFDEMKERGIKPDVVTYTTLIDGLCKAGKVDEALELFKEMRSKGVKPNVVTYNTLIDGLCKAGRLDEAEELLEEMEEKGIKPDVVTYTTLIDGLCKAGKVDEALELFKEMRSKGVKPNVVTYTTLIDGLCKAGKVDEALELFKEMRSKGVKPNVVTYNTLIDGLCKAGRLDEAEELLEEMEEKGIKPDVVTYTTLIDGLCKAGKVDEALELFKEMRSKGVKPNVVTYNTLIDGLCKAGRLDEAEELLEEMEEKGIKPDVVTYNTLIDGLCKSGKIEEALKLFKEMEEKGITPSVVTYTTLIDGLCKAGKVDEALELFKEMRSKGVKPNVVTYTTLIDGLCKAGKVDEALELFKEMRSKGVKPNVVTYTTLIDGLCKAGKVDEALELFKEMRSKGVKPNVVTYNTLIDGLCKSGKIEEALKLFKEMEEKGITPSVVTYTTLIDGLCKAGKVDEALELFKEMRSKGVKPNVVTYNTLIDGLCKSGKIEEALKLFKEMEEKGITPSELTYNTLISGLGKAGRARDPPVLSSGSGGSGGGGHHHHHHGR
As to conditions: tags: luciferase fusion; label: 5'-biotin.

The target of another data set is T4, NL_v2_PPR16 (Artificial Sequence).
T4 chain: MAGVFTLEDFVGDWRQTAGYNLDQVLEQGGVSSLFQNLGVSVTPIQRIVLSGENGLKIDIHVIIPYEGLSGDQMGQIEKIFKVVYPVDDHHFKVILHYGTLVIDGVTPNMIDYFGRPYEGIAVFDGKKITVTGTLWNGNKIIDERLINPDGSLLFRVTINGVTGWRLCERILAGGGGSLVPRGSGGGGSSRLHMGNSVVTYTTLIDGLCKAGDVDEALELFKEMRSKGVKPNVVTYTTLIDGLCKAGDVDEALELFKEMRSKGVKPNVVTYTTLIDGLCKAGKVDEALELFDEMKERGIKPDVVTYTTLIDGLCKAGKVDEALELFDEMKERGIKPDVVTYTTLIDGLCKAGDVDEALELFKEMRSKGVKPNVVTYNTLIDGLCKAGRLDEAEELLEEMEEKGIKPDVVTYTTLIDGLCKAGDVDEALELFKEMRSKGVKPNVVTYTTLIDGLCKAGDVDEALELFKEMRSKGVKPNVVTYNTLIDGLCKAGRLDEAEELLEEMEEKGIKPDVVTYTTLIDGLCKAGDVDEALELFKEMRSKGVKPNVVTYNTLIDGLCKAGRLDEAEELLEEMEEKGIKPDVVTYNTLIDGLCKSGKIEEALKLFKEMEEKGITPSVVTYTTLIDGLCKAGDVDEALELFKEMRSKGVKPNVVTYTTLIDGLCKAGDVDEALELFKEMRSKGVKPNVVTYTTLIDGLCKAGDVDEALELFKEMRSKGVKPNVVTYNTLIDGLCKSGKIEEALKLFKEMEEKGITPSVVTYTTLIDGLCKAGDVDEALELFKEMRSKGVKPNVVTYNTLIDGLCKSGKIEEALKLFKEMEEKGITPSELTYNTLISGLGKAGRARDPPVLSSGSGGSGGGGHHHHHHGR
The settings on record: tags: N-term luciferase, C-term 6xHis; label: 5'-biotin.

For the next data set, the target named is T5, v3.1_PPR17 (Artificial Sequence).
T5 chain: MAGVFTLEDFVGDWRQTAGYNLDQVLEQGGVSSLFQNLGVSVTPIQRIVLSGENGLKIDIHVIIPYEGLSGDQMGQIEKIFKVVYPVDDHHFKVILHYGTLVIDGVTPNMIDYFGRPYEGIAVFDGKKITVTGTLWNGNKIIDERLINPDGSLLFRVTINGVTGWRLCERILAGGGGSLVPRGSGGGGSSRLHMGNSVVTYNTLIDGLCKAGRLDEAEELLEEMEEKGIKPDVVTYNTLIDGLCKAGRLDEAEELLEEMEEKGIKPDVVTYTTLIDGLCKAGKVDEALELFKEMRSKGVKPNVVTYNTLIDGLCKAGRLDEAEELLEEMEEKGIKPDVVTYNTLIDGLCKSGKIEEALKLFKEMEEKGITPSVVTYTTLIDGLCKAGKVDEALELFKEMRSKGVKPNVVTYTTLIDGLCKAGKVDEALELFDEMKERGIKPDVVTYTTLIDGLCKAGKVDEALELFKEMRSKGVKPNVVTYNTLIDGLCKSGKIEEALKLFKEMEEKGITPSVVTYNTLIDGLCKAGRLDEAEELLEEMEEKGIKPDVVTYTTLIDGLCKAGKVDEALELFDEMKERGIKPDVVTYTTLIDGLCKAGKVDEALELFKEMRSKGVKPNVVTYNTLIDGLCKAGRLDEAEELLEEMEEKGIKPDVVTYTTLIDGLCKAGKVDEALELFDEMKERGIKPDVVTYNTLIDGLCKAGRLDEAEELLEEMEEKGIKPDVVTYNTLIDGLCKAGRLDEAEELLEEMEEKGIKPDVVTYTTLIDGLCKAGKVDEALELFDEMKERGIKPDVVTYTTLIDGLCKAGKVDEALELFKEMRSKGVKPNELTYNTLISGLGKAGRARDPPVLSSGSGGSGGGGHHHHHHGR
As to conditions: tags: luciferase fusion; label: 5'-biotin.

GACAUGCGCAGAUAAUUAAUAAGAAGACUG (ssRNA) [RNA_15]: the binding signal in the data set with v3.1_PPR15 is 3.2e+07 luminescence; with NL_v2_PPR15 it was 1.3e+07 luminescence.

With GACAUGCAAGGAUAAUAUCAAACACGACUG (ssRNA) [RNA_16], the binding signal with v3.1_PPR16 was found to be 6.3e+07 luminescence; with NL_v2_PPR16, 2.8e+07 luminescence.

Regarding GACAUGCUUAUCAGACUGAUGUUGAGACUG (ssRNA) [RNA_17], the binding signal in the data set with v3.1_PPR17 amounted to 3.3e+07 luminescence.
